The target of test [1] is T1, TSLP receptors constitutively expressed on NAG8/7 cells.
T1 construct: also called single class of receptors
The experiment in a line: displacement binding assay with ^125I-TSLP and unlabeled TSLP on NAG8/7 cells, Scatchard transformation. How it is done: (§1) The binding of TSLP to 293 cells transfected with murine IL-7Rα and murine TSLPR polypeptide, or murine IL-7Rα alone, was analyzed in a displacement binding assay. Following two washes, 1×10⁶ transfected 293 cells were incubated in a constant amount of ¹²⁵I-labeled TSLP (approximately 20,000 cpm) and varying amounts of unlabeled TSLP. Following a 3 hour incubation, treated cells were separated from the medium by centrifugation in olive oil and N-butylphthalate. Cell-bound radioactivity was measured using a gamma counter.
(§2) Analysis of binding data by Scatchard transformation was performed using the LIGAND computer program (Munson and Rodbard, 1980, Anal. Biochem. 107:220-39). […] Due to the very low binding activity of TSLP for cells expressing […], it was not possible to determine the Kd for these cells. Displacement binding assays were also performed using NAG8/7 cells, which constitutively express TSLP receptors and proliferate in response to TSLP (Friend et al., supra; Levin et al., supra). In these displacement binding assays, 5×10⁶ NAG8/7 cells were incubated in a constant amount of ¹²⁵I-labeled TSLP (approximately 180,000 cpm) and varying amounts of unlabeled TSLP. The remainder of the assay was performed as described herein.

In the next test the target is T2, murine IL-7Rα (murine, UniProt P16872 21-459).
T2 construct: whole, on cells; Expressed alone on transiently transfected 293 cells; also called murine IL-7Rα alone
T2 sequence (looked up): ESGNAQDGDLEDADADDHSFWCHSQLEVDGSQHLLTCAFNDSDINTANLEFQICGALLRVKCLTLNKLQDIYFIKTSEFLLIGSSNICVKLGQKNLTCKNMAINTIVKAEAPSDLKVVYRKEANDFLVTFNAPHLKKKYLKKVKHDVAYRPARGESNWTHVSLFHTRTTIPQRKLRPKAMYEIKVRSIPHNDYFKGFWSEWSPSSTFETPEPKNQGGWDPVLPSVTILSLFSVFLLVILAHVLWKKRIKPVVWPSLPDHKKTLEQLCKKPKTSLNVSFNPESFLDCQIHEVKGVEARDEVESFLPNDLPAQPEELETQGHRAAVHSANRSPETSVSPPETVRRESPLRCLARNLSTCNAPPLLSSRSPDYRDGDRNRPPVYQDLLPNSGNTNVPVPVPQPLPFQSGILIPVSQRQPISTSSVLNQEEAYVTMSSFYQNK
The experiment in a line: affinity labeling, DSS cross-linking, transfected 293 cells, SDS-PAGE. As for the experimental part:
The binding of TSLP to TSLPR polypeptide in the presence of IL-7Rα was examined in affinity labeling assays. Affinity labeling assays were performed by adding 1-5 nM of ¹²⁵I-labeled TSLP to 5×10⁶ 293 cells transfected with expression constructs for murine IL-7Rα, murine TSLPR polypeptide, murine IL-7Rα and murine TSLPR polypeptide, or human IL-7Rα and murine TSLPR polypeptide. Iodinated TSLP was prepared by adding IODO-GEN (Pierce, Rockford, Ill.) and 2 mCi¹²⁵I to 1 μg of TSLP. A specific activity of approximately 200-300 μCi/μg was obtained by this method. Prior to affinity labeling, 293 cells were transiently transfected using the calcium phosphate method (Eppendorf-5 Prime, Boulder, Colo.). Following a 2 hour incubation with ¹²⁵I-TSLP, cells were cross-linked with 0.1 mg/ml disuccinimidyl suberate (Pierce), lysed in lysis buffer, and the lysates resolved by SDS-PAGE.

Test [2] addresses T3, heterodimer of murine IL-7Rα and murine TSLPR polypeptide (murine, UniProt P16872 21-459).
T3 construct: whole, on cells; Both chains co-expressed on transiently transfected 293 cells; also called IL-7Rα/TSLPR polypeptide heterodimer; cells expressing TSLPR polypeptide and IL-7Rα
T3 sequence (P16872 whole entry, looked up): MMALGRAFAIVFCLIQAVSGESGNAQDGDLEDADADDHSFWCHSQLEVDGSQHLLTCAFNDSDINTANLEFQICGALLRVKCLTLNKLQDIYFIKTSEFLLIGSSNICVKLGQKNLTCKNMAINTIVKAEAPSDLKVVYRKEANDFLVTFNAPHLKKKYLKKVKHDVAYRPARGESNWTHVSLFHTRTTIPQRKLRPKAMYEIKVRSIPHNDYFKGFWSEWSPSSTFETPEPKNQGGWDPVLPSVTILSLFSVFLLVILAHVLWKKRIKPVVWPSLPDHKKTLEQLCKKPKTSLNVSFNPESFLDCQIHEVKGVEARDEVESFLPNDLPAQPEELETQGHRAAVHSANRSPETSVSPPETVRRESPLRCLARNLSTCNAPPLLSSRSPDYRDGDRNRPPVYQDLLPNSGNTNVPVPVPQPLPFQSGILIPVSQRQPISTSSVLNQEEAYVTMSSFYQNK
T3 sequence (Q8CII9 whole entry, looked up): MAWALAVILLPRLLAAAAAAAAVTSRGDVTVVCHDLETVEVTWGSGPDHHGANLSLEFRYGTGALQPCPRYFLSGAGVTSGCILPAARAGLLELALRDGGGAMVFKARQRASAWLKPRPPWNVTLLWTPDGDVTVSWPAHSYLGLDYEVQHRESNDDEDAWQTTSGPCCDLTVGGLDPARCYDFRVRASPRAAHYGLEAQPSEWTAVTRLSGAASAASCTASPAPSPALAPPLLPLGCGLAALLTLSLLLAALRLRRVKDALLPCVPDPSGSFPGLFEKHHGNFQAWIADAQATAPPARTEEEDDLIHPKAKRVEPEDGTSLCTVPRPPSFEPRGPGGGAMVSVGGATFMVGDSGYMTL
The experiment in a line: displacement binding assay on transfected 293 cells, Scatchard transformation (LIGAND program). As for the experimental part:
as §1, §2

The source of these data is US20020068323A1 (Amgen, published 2002).

B1: Thymic stromal lymphopoietin (TSLP) (ligand, UniProt Q9JIE6 20-140, looked up)
chain: YNFSNCNFTSITKIYCNIIFHDLTGDLKGAKFEQIEDCESKPACLLKIEYYTLNPIPGCPSLPDKTFARRTREALNDHCPGYPETERNDGTQEMAQEVQNICLNQTSQILRLWYSFMQSPE
What is called Kd is a measure of binding affinity in units of concentration. A higher Kd goes with lower affinity. Regarding B1, the Kd in test [1] is ~2.2 nM; in test [2], ~13 nM. Moreover, the binding result with murine IL-7Rα is reported as “no binding (tested: 1-5 nM of ^125I-labeled TSLP)”.
